Source: the DeepSol protein solubility set

Test: soluble on expression in E. coli; label from the status in PepcDB or PDB records

GAMGKTVSQSQRLEHNWNKFFASFVPNLIKKNPQSKQFDHENIKQCAKDIVKILTTKELKKDSSRAPPDDLTKGKRHKVKEFINSYMDKIILKKKQKKALGLSS
soluble on expression in E. coli: soluble

MINKDTQLCMSLSGRPSNFGTTFHNYLYDKLGLNFIYKAFTTQDIEHAIKGVRALGIRGCAVSMPFKETCMPFLDEIHPSAQAIESVNTIVNDNGFLRAYNTDYIAIVKLIEKYHLNKNAKVIVHGSGGMAKAVVAAFKNSGFEKLKIYARNVKTGQYLAALYGYAYINSLENQQADILVNVTSIGMKGGKEEMDLAFPKAFIDNASVAFDVVAMPVETPFIRYAQARGKQTISGAAVIVLQAVEQFELYTHQRPSDELIAEAAAFARTKFLEHHHHHH
soluble on expression in E. coli: soluble

SLHCIPLWRCNRHVESIDKRHCSLVYVPEEIYRYARSLEELLLDANQLRELPEQFFQLVKLRKLGLSDNEIQRLPPEIANFMQLVELDVSRNEIPEIPESISFCKALQVADFSGNPLTRLPESFPELQNLTCLSVNDISLQSLPENIGNLYNLASLELRENLLTYLPDSLTQLRRLEELDLGNNEIYNLPESIGALLHLKDLWLDGNQLSELPQEIGNLKNLLCLDVSENRLERLPEEISGLTSLTDLVISQNLLETIPDGIGKLKKLSILKVDQNRLTQLPEAVGECESLTELVLTENQLMTLPKSIGKLKKLSNLNADRNKLVSLPKEIGGCCSLTVFCVRDNRLTRIPAEVSQATELHVLDVAGNRLLHLPLSLTALKLKALWLSDNQSQPMLTFQTDTDYTTGEKILTCVLLPQLPSEPTCQENLPRCGALENLVNDVSDEAWNERAVNRVSAIRFVEDEKDEEDNETRTLLRRATPHPGELKHMKKTVENLRNDMNAAKGLDSNKNEVNHAIDRVTTS
soluble on expression in E. coli: not soluble

MTNPGDGAAGAADRATLDHWRPRLAAIAAAAGQDDAAHDLGHLRRVWDAARAMLQAHPEADALVVLAASYLHDLVNLPKNHPERHLASRQAAAAARERLARAGFPAARLDAVAHAIEAHSFSAGIAPRTIEARIVQDADRLDALGPVGLVRMFHVGGSLGRALAHPSDPLAAQRALDDSRYTLDHIEAKLARLPHGMQTEAGRRLGEQRLAWLRDFRAAFSAQWGGGQLRLEHHHHHH
soluble on expression in E. coli: not soluble

MQQSTLVRLKEKLTLKNPIMVVGLPGVGLVGKLVAEHLVDELAAERIMEVYSPHFPPQVLVNKDCTVRPVSNTIYLGKANETDVLFLVGDHQSTTAQGHYELCSLYLDIAEELKVPRIYTLGGYPTGKLTYEDTVLGVANSTELIEEIKQYGVEFRESEPSGGIVGASGLLVAFSGMRGIDAACLMGMTPGYLMDPKSAQSLLKVLCNIFGIEVNTDSLKKKAEEMENILEKLKEKEEQQNLPEVKPTEEDLRYIG
soluble on expression in E. coli: soluble

IVMQFPREEYFAPGHRGCAGCGAAIVARLLLKVAGKDTIITNATGCLEVMTTPYPETSWRVPWIHTAFENAAATASGIEAAVKALKRKRGKFADKKINVIAIGGDGGTADIGFQALSGAMERGHDILYIMYDNEAYMNTGIQRSSSTPFMAATTTSPAGSKIRGEDRPKKDMTMIMAAHGIPYVATACISYPEDFMRKVKKALSIEGPKFIQVLQPCTTGWGYPPEKTIEIGRLAVETGIFPLYEIENGEFRITYKPAKRKPVREYLKMQKRYRHLTDEDIERIQKYIDEKCKLLGL
soluble on expression in E. coli: not soluble

VRNSPDLLDEIRAGITVHARPDLQTPIDGLLLSKVTAESAAPEYSLTEPLLVIMTQGGKRLLLGDRLYEYRAGQCLVVTASVPVTGHYIDISEGAPSLAMGLVLRPAAIAALVLQAPTERWSRGAAGVPAIETGDADVHLLDAAARMLRLLDHPADAPVLAPLIEQEILWRLLTGPHGSTIRQIGMADSDLAHVSRAIHWIRDNYSEPMRIDDLARLSSMSASAFHRHFRAVTAMSPLQYQKRIRLQHARSMLVAHPGDVAGVGHHVGYDSPSQFNREYRRLFGASPGKDAHGLRGNTALSDTGPLP
soluble on expression in E. coli: not soluble

MGSDKIHHHHHHMALLEVKNLKKYFPIIKRGFRRKVVGYLKAVDGISFHIEEGETLGLVGESGCGKTTTAKLIMRGIEPTEGEIVLNMDGEKVDITKLSEKELREKGVRRFLQMIFQDPYSSLNPRMTVRDIIAEPLVVNGVIKGKEEIDAIVSDLLRAVGLRPEYMQRYPHAFSGGQRQRIAIARAIALKPKLVLCDEPTSALDVSVQAQIINLLKDLQKEYNLTYLFISHDLGVVEHITNRVAVMYVGRIVELAETEELFSSPKHPYTEALLSAVPKPDPKRKRKKAQLTGEVPDPSNPPSGCYFHPRCPYAKAICKEVYPDLRNVGTDQNPHLVACHFADSLKLEGVGTM
soluble on expression in E. coli: not soluble
